Reference: patent US20190262327A1, “COMBINATION OF A BACE INHIBITOR AND AN ANTIBODY OR ANTIGEN-BINDING FRAGMENT FOR THE TREATMENT OF A DISORDER ASSOCIATED WITH THE ACCUMULATION OF AMYLOID BETA” (ASTRAZENECA AB, priority 2016, published 2019)
“Also recorded” adds a separate entry of the source.

Tests used:
Amyloid plaques = assay: In vitro immunohistochemistry on human Alzheimer's Disease brain sections
From the text: Briefly, the lead antibodies were screened on human Alzheimer's Disease brain sections and Tg2576 mouse brain sections to identify anti-Amyloid beta 1-42 antibodies that bound to Amyloid plaques in vitro.
In these experiments, human brain tissue was isolated from the frontal cortex of two individuals with severe Alzheimer's Disease (ApoE genotype 3/3, Braak stage 6 and ApoE genotype 4/3, Braak stage 5). As a control, equivalent tissue was isolated from one non-dementia individual (ApoE genotype 3/3, Braak stage 1). Mouse brain tissue was isolated from Tg2576 mice at an age of 15 months (2 mice) and 22 months (2 mice). Antibodies were tested at concentrations of 2, 5, 10 and 20 ug ml^−1.

[1] = biological target: T1, human Amyloid beta 1-42 peptide (Homo sapiens, UniProt P05067); assay: Surface Plasmon Resonance binding kinetics of IgGs (BIAcore T-100); conditions: IgG1-TM captured on protein G; 1:1 Langmuir fit
T1 construct: biotinylated human Amyloid beta 1-42 peptide (rpeptide, USA; cat: A1117); purchased rPeptide, USA A1117; host or cells: synthetic peptide
T1 sequence (P05067 672-713): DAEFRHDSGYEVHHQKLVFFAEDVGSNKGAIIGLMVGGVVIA
Procedure: Surface Plasmon Resonance was used to analyse the binding kinetics of the affinity-optimized IgGs (section 1.8) and their germlined counterparts (section 1.9). Briefly, the BIAcore T-100 (GE Healthcare, UK) biosensor instrument was used to assess the kinetic parameters of the interaction between each test IgG and synthetically-produced human Amyloid beta 1-42 peptide. These experiments were performed essentially as described by Karsson et al. (Karlsson et al., 1991).
The affinity of binding between each test IgG and human Amyloid beta 1-42 was estimated using assays in which each antibody was non-covalently captured by a protein G surface that was itself amine linked to a proprietary CM5 chip. The chip surface was regenerated between cycles by paired 40 second injections of 10 mM Glycine pH 2.0 to remove ligand and bound antibody. The test antibody was then reapplied for each peptide injection.
A series of dilutions of synthetic human Amyloid beta 1-42 peptide (0.063-1024 nM) were sequentially passed over the antibody surface for a sufficient amount of time to observe sensorgrams that could be fitted to an appropriate binding model with confidence. […]
The validity of the data was assessed using the calculated Chi^2 value, with an acceptable value being under 2 RU^2. […]

Amyloid beta plaques = assay: In vivo binding to Amyloid beta plaques in aged Tg2576 mice (immunohistochemistry); set-up: species or system mouse; conditions: 168 hours after single i.v. dose of 10 or 30 mg/kg
Procedure: Abet0380-GL IgG1-TM was tested for its ability to bind to Amyloid beta plaques in aged Tg2576 mice after a single peripheral dose. Animal experimentations were performed in accordance with relevant guidelines and regulations provided by the Swedish Board of Agriculture. The ethical permission was provided by an ethical board specialized in animal experimentations: the Stockholm Sodra Animal Research Ethical Board. Seventeen-month old female Tg2576 mice (n=5) received a single dose of vehicle, a positive control antibody at 30 mg/kg or the Abet0380-GL IgG1-TM antibody at 10 or 30 mg/kg by intravenous injection with a dosing vehicle of 25 mM Histidine, 7% Sucrose, 0.02% p80 surfactant, pH 6.0 at 5 mL/kg. At 168 hours after dose, animals were deeply anaesthetized and perfused with room temperature PBS followed by cold (4° C.) phosphate buffered 4% paraformaldehyde (PFA). Animals were then sacrificed by decapitation and brains were dissected and immersions fix in PFA at 4° C. for 72 hours. The fixative was exchanged to PBS containing 0.1% sodium azide and tissues were stored at 4° C. until further processed. […]
Scoring of the staining was carried out in a blinded fashion under 10× optical magnification. […] The intensity of plaque labelling was scored according to a relative intensity scale from 0 (no staining of plaques) up to 4 (intense decoration of plaques).

B1: Abet0380-GL IgG1-TM: germlined Abet0380; VH SEQ ID NO: 524, VL SEQ ID NO: 533; human IgG1 triple mutant format (antibody, listed as Homo sapiens, V domains shown)
VH: EVQLLESGGGLVQPGGSLRLSCAASMGNFNYQTMWWVRQAPGKGLEWVSVIGKTNENIAYADSVKGRFTISRDNSKNTLYLQMNSLRAEDTAVYYCAREWMDHSRPYYYYGMDVWGQGTLVTVSS
VL: SYELTQPPSVSVSPGQTASITCSGHNLEDKFASWYQQKPGQSPVLVIYRDDKRPSGIPERFSASNSGHTATLTISGTQAMDEADYYCSSQDTVTRVFGGGTKLTVL
modifications: human IgG1 triple mutant constant region; /note=“Abet0380-GL”
notes: germlined Abet0380; human IgG1 triple mutant format
- plaque recognition score (Amyloid plaques; human AD brain section, ApoE genotype 3/3, Braak stage 6, 10 μg/ml): 3
- core plaques (CP) staining score (Amyloid plaques; human AD brain sections): 3
- staining of diffuse plaques (DP) and cerebral amyloid angiopathy (CAA) plaques (Amyloid plaques; relative to core plaques, Tg2576 and human AD brain sections): to a lesser extent
- association rate constant (ka) [1]: 952000 M⁻¹ s⁻¹
- dissociation rate constant (kd) [1]: 0.000307 s⁻¹
- in vivo decoration of Amyloid beta plaques or CAA (Amyloid beta plaques): did not decorate; also recorded: does not show any in vivo plaque decoration
